Data taken from patent US10273291.

Molecular target: ΔRSC3
Experiment: ELISA, antigen coated, IgG1

Substance	fold less binding than to RSC3 [fold]
VRC-PG04 (antibody)	100
VRC-PG04b (antibody)	100
